Patent US20240238380A1 (YUHAN, published 2024)

Target: GFRAL/RET overexpressed on HEK293 cells (GFRAL/RET/SRE-luc-overexpressing HEK293 cell line) (UniProt Q6UXV0 19-394; P07949 29-1114, limits assumed)
Experiment: cell-based or functional assay

Sequence of GFRAL/RET overexpressed on HEK293 cells (GFRAL/RET/SRE-luc-overexpressing HEK293 cell line) (Q6UXV0 19-394 limits assumed, chain 1 of 2): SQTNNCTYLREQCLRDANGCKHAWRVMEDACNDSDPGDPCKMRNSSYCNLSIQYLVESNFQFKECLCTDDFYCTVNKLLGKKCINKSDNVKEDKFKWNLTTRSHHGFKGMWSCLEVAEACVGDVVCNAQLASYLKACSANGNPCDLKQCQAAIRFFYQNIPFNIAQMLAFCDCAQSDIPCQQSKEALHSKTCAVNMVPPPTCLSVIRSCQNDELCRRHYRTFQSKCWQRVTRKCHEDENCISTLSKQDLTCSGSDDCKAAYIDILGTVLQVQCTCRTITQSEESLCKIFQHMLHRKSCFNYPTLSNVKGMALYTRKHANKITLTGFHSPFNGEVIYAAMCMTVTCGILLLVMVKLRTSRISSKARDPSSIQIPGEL
Sequence of GFRAL/RET overexpressed on HEK293 cells (GFRAL/RET/SRE-luc-overexpressing HEK293 cell line) (P07949 29-1114 limits assumed, chain 2 of 2): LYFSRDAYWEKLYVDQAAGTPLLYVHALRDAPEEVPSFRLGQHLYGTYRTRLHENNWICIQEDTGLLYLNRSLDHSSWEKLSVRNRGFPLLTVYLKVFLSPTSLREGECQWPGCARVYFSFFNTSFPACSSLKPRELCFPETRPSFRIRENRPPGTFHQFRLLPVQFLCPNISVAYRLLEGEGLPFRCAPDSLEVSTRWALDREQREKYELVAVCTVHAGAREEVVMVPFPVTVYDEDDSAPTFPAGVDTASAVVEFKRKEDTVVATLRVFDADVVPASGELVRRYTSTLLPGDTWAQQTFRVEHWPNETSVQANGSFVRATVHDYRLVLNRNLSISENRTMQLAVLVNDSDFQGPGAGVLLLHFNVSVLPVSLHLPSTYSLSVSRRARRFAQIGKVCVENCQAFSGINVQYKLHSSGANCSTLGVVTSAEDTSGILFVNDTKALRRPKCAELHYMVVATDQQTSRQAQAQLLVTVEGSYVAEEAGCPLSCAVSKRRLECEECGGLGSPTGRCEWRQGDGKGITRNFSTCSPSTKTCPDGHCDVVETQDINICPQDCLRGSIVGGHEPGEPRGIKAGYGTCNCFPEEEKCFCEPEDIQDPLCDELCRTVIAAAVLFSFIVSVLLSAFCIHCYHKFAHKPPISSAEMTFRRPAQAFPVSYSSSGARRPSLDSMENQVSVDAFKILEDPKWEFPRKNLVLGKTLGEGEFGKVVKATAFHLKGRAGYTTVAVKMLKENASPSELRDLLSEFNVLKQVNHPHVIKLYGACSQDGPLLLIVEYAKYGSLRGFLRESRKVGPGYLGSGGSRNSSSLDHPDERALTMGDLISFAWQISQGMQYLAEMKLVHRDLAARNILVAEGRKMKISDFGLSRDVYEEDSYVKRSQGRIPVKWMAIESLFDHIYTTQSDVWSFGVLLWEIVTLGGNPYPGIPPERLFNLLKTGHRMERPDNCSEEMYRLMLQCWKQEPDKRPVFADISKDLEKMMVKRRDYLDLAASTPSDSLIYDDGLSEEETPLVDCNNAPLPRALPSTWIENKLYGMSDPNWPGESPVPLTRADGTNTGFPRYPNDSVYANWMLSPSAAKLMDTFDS

B1: FM9-1 + Fc_hole long-acting GDF15 fusion protein (dimer) (Fc fusion)
chain 1: APEAAGGPSVFLFPPKPKDTLMISRTPEVTCVVVDVSHEDPEVKFNWYVDGVEVHNAKTKPREEQYASTYRVVSVLTVLHQDWLNGKEYKCKVSNKALPAPIEKTISKAKGQPREPQVYTLPPSREEMTKNQVSLWCLVKGFYPSDIAVEWESNGQPENNYKTTPPVLDSDGSFFLYSKLTVDKSRWQQGNVFSCSVMHEALHNHYTQKSLSLSPGKGSGGGGSGGGGSGGGGSNGDHCPLGPGRCCRLHTVRASLEDLGWADWVLSPREVQVTMCIGACPSQFRAANMHAQIKTRLHRLKPDTVPAPCCVPASYNPMVLIQKTDTGVSLQTYDDLLAKDCHCI
chain 2: APEAAGGPSVFLFPPKPKDTLMISRTPEVTCVVVDVSHEDPEVKFNWYVDGVEVHNAKTKPREEQYASTYRVVSVLTVLHQDWLNGKEYKCKVSNKALPAPIEKTISKAKGQPREPQVYTLPPSREEMTKNQVSLSCAVKGFYPSDIAVEWESNGQPENNYKTTPPVLDSDGSFFLVSKLTVDKSRWQQGNVFSCSVMHEALHNHYTQKSLSLSPGK
  EC50 (nM), SRE-luciferase reporter (RLU): 9 nM
  Emax (%), SRE-luciferase reporter (RLU), relative to FM9-6+Fc_hole: 97.6%

B2: FM11-6 + Fc_hole long-acting GDF15 fusion protein (dimer) (Fc fusion)
chain 1: APEAAGGPSVFLFPPKPKDTLMISRTPEVTCVVVDVSHEDPEVKFNWYVDGVEVHNAKTKPREEQYASTYRVVSVLTVLHQDWLNGKEYKCKVSNKALPAPIEKTISKAKGQPREPQVYTLPPSREEMTKNQVSLWCLVKGFYPSDIAVEWESNGQPENNYKTTPPVLDSDGSFFLYSKLTVDKSRWQQGNVFSCSVMHEALHNHYTQKSLSLSPGKGSEAAAKEAAAKEAAAKEAAAKEAAAKNSTCPLGPGRCCRLHTVRASLEDLGWADWVLSPREVQVTMCIGACPSQFRAANMHAQIKTRLHRLKPDTVPAPCCVPASYNPMVLIQKTDTGVSLQTYDDLLAKDCHCI
chain 2: APEAAGGPSVFLFPPKPKDTLMISRTPEVTCVVVDVSHEDPEVKFNWYVDGVEVHNAKTKPREEQYASTYRVVSVLTVLHQDWLNGKEYKCKVSNKALPAPIEKTISKAKGQPREPQVYTLPPSREEMTKNQVSLSCAVKGFYPSDIAVEWESNGQPENNYKTTPPVLDSDGSFFLVSKLTVDKSRWQQGNVFSCSVMHEALHNHYTQKSLSLSPGK
  EC50 (nM), SRE-luciferase reporter (RLU): 6.8 nM
  Emax (%), SRE-luciferase reporter (RLU), relative to FM9-6+Fc_hole: 80.3%

B3: FM11-4 + Fc_hole long-acting GDF15 fusion protein (dimer) (Fc fusion)
chain 1: APEAAGGPSVFLFPPKPKDTLMISRTPEVTCVVVDVSHEDPEVKFNWYVDGVEVHNAKTKPREEQYASTYRVVSVLTVLHQDWLNGKEYKCKVSNKALPAPIEKTISKAKGQPREPQVYTLPPSREEMTKNQVSLWCLVKGFYPSDIAVEWESNGQPENNYKTTPPVLDSDGSFFLYSKLTVDKSRWQQGNVFSCSVMHEALHNHYTQKSLSLSPGKGSEEEAEEEAEEEAEEEAEEEAEEEANSTCPLGPGRCCRLHTVRASLEDLGWADWVLSPREVQVTMCIGACPSQFRAANMHAQIKTRLHRLKPDTVPAPCCVPASYNPMVLIQKTDTGVSLQTYDDLLAKDCHCI
chain 2: APEAAGGPSVFLFPPKPKDTLMISRTPEVTCVVVDVSHEDPEVKFNWYVDGVEVHNAKTKPREEQYASTYRVVSVLTVLHQDWLNGKEYKCKVSNKALPAPIEKTISKAKGQPREPQVYTLPPSREEMTKNQVSLSCAVKGFYPSDIAVEWESNGQPENNYKTTPPVLDSDGSFFLVSKLTVDKSRWQQGNVFSCSVMHEALHNHYTQKSLSLSPGK
  EC50 (nM), SRE-luciferase reporter (RLU): 45.4 nM
  Emax (%), SRE-luciferase reporter (RLU), relative to FM9-6+Fc_hole: 105%

B4: FM11-3 + Fc_hole long-acting GDF15 fusion protein (dimer) (Fc fusion)
chain 1: APEAAGGPSVFLFPPKPKDTLMISRTPEVTCVVVDVSHEDPEVKFNWYVDGVEVHNAKTKPREEQYASTYRVVSVLTVLHQDWLNGKEYKCKVSNKALPAPIEKTISKAKGQPREPQVYTLPPSREEMTKNQVSLWCLVKGFYPSDIAVEWESNGQPENNYKTTPPVLDSDGSFFLYSKLTVDKSRWQQGNVFSCSVMHEALHNHYTQKSLSLSPGKGSGGGGSGGGGSGGGGSGGGGSGGGGSGGGGSGGGGSNSTCPLGPGRCCRLHTVRASLEDLGWADWVLSPREVQVTMCIGACPSQFRAANMHAQIKTRLHRLKPDTVPAPCCVPASYNPMVLIQKTDTGVSLQTYDDLLAKDCHCI
chain 2: APEAAGGPSVFLFPPKPKDTLMISRTPEVTCVVVDVSHEDPEVKFNWYVDGVEVHNAKTKPREEQYASTYRVVSVLTVLHQDWLNGKEYKCKVSNKALPAPIEKTISKAKGQPREPQVYTLPPSREEMTKNQVSLSCAVKGFYPSDIAVEWESNGQPENNYKTTPPVLDSDGSFFLVSKLTVDKSRWQQGNVFSCSVMHEALHNHYTQKSLSLSPGK
  EC50 (nM), SRE-luciferase reporter (RLU): 7.8 nM
  Emax (%), SRE-luciferase reporter (RLU), relative to FM9-6+Fc_hole: 81%

B5: FM9-5 + Fc_hole long-acting GDF15 fusion protein (dimer) (Fc fusion)
chain 1: APEAAGGPSVFLFPPKPKDTLMISRTPEVTCVVVDVSHEDPEVKFNWYVDGVEVHNAKTKPREEQYASTYRVVSVLTVLHQDWLNGKEYKCKVSNKALPAPIEKTISKAKGQPREPQVYTLPPSREEMTKNQVSLWCLVKGFYPSDIAVEWESNGQPENNYKTTPPVLDSDGSFFLYSKLTVDKSRWQQGNVFSCSVMHEALHNHYTQKSLSLSPGKGSGGSSPTPTPTPTPTPTPTPTPTPTNGDHCPLGPGRCCRLHTVRASLEDLGWADWVLSPREVQVTMCIGACPSQFRAANMHAQIKTRLHRLKPDTVPAPCCVPASYNPMVLIQKTDTGVSLQTYDDLLAKDCHCI
chain 2: APEAAGGPSVFLFPPKPKDTLMISRTPEVTCVVVDVSHEDPEVKFNWYVDGVEVHNAKTKPREEQYASTYRVVSVLTVLHQDWLNGKEYKCKVSNKALPAPIEKTISKAKGQPREPQVYTLPPSREEMTKNQVSLSCAVKGFYPSDIAVEWESNGQPENNYKTTPPVLDSDGSFFLVSKLTVDKSRWQQGNVFSCSVMHEALHNHYTQKSLSLSPGK
  EC50 (nM), SRE-luciferase reporter (RLU): 5.3 nM
  Emax (%), SRE-luciferase reporter (RLU), relative to FM9-6+Fc_hole: 100%

B6: FM11-2 + Fc_hole long-acting GDF15 fusion protein (dimer) (Fc fusion)
chain 1: APEAAGGPSVFLFPPKPKDTLMISRTPEVTCVVVDVSHEDPEVKFNWYVDGVEVHNAKTKPREEQYASTYRVVSVLTVLHQDWLNGKEYKCKVSNKALPAPIEKTISKAKGQPREPQVYTLPPSREEMTKNQVSLWCLVKGFYPSDIAVEWESNGQPENNYKTTPPVLDSDGSFFLYSKLTVDKSRWQQGNVFSCSVMHEALHNHYTQKSLSLSPGKGSGGGGSGGGGSGGGGSGGGGSGGGGSNSTCPLGPGRCCRLHTVRASLEDLGWADWVLSPREVQVTMCIGACPSQFRAANMHAQIKTRLHRLKPDTVPAPCCVPASYNPMVLIQKTDTGVSLQTYDDLLAKDCHCI
chain 2: APEAAGGPSVFLFPPKPKDTLMISRTPEVTCVVVDVSHEDPEVKFNWYVDGVEVHNAKTKPREEQYASTYRVVSVLTVLHQDWLNGKEYKCKVSNKALPAPIEKTISKAKGQPREPQVYTLPPSREEMTKNQVSLSCAVKGFYPSDIAVEWESNGQPENNYKTTPPVLDSDGSFFLVSKLTVDKSRWQQGNVFSCSVMHEALHNHYTQKSLSLSPGK
  EC50 (nM), SRE-luciferase reporter (RLU): 7.7 nM
  Emax (%), SRE-luciferase reporter (RLU), relative to FM9-6+Fc_hole: 79.4%

B7: FM9-6 + Fc_hole long-acting GDF15 fusion protein (dimer) (Fc fusion)
chain 1: APEAAGGPSVFLFPPKPKDTLMISRTPEVTCVVVDVSHEDPEVKFNWYVDGVEVHNAKTKPREEQYASTYRVVSVLTVLHQDWLNGKEYKCKVSNKALPAPIEKTISKAKGQPREPQVYTLPPSREEMTKNQVSLWCLVKGFYPSDIAVEWESNGQPENNYKTTPPVLDSDGSFFLYSKLTVDKSRWQQGNVFSCSVMHEALHNHYTQKSLSLSPGKGSEAAAKEAAAKEAAAKEAAAKEAAAKNGDHCPLGPGRCCRLHTVRASLEDLGWADWVLSPREVQVTMCIGACPSQFRAANMHAQIKTRLHRLKPDTVPAPCCVPASYNPMVLIQKTDTGVSLQTYDDLLAKDCHCI
chain 2: APEAAGGPSVFLFPPKPKDTLMISRTPEVTCVVVDVSHEDPEVKFNWYVDGVEVHNAKTKPREEQYASTYRVVSVLTVLHQDWLNGKEYKCKVSNKALPAPIEKTISKAKGQPREPQVYTLPPSREEMTKNQVSLSCAVKGFYPSDIAVEWESNGQPENNYKTTPPVLDSDGSFFLVSKLTVDKSRWQQGNVFSCSVMHEALHNHYTQKSLSLSPGK
  EC50 (nM), SRE-luciferase reporter (RLU): 6.3 nM

B8: FM11-5 + Fc_hole long-acting GDF15 fusion protein (dimer) (Fc fusion)
chain 1: APEAAGGPSVFLFPPKPKDTLMISRTPEVTCVVVDVSHEDPEVKFNWYVDGVEVHNAKTKPREEQYASTYRVVSVLTVLHQDWLNGKEYKCKVSNKALPAPIEKTISKAKGQPREPQVYTLPPSREEMTKNQVSLWCLVKGFYPSDIAVEWESNGQPENNYKTTPPVLDSDGSFFLYSKLTVDKSRWQQGNVFSCSVMHEALHNHYTQKSLSLSPGKGSGGSSPTPTPTPTPTPTPTPTPTPTNSTCPLGPGRCCRLHTVRASLEDLGWADWVLSPREVQVTMCIGACPSQFRAANMHAQIKTRLHRLKPDTVPAPCCVPASYNPMVLIQKTDTGVSLQTYDDLLAKDCHCI
chain 2: APEAAGGPSVFLFPPKPKDTLMISRTPEVTCVVVDVSHEDPEVKFNWYVDGVEVHNAKTKPREEQYASTYRVVSVLTVLHQDWLNGKEYKCKVSNKALPAPIEKTISKAKGQPREPQVYTLPPSREEMTKNQVSLSCAVKGFYPSDIAVEWESNGQPENNYKTTPPVLDSDGSFFLVSKLTVDKSRWQQGNVFSCSVMHEALHNHYTQKSLSLSPGK
  EC50 (nM), SRE-luciferase reporter (RLU): 5.1 nM
  Emax (%), SRE-luciferase reporter (RLU), relative to FM9-6+Fc_hole: 68.2%

B9: FM11-1 + Fc_hole long-acting GDF15 fusion protein (dimer) (Fc fusion)
chain 1: APEAAGGPSVFLFPPKPKDTLMISRTPEVTCVVVDVSHEDPEVKFNWYVDGVEVHNAKTKPREEQYASTYRVVSVLTVLHQDWLNGKEYKCKVSNKALPAPIEKTISKAKGQPREPQVYTLPPSREEMTKNQVSLWCLVKGFYPSDIAVEWESNGQPENNYKTTPPVLDSDGSFFLYSKLTVDKSRWQQGNVFSCSVMHEALHNHYTQKSLSLSPGKGSGGGGSGGGGSGGGGSNSTCPLGPGRCCRLHTVRASLEDLGWADWVLSPREVQVTMCIGACPSQFRAANMHAQIKTRLHRLKPDTVPAPCCVPASYNPMVLIQKTDTGVSLQTYDDLLAKDCHCI
chain 2: APEAAGGPSVFLFPPKPKDTLMISRTPEVTCVVVDVSHEDPEVKFNWYVDGVEVHNAKTKPREEQYASTYRVVSVLTVLHQDWLNGKEYKCKVSNKALPAPIEKTISKAKGQPREPQVYTLPPSREEMTKNQVSLSCAVKGFYPSDIAVEWESNGQPENNYKTTPPVLDSDGSFFLVSKLTVDKSRWQQGNVFSCSVMHEALHNHYTQKSLSLSPGK
  EC50 (nM), SRE-luciferase reporter (RLU): 9.7 nM
  Emax (%), SRE-luciferase reporter (RLU), relative to FM9-6+Fc_hole: 65.6%
